Source: article PMC3351185 (Nucleic Acids Research, 2011)

Target: T1, ϕ29 DNA polymerase (wild-type) (bacteriophage ϕ29, UniProt P03680 1-575)
T1 sequence: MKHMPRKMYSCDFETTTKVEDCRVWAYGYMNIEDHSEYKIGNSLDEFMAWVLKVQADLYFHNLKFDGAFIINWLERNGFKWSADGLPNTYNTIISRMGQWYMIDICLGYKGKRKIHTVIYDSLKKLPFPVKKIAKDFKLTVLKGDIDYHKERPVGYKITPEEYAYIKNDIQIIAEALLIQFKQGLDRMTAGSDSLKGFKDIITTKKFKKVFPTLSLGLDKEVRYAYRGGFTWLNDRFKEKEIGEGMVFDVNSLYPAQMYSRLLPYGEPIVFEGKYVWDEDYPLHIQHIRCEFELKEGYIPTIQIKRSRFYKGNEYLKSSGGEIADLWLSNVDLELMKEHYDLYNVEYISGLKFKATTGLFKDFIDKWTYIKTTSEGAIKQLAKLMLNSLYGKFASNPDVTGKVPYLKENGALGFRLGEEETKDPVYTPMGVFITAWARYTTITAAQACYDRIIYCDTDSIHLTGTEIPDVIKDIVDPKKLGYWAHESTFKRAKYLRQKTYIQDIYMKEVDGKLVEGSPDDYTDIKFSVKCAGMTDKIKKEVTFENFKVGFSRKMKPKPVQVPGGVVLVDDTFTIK
Experiment: cell-based or functional assay

B1: ϕ29 terminal protein mutant R158A (natural protein, bacteriophage ϕ29, UniProt P03681 1-266, looked up)
chain: MARSPRIRIKDNDKAEYARLVKNTKAKIARTKKKYGVDLTAEIDIPDLDSFETRAQFNKWKEQASSFTNRANMRYQFEKNAYGVVASKAKIAEIERNTKEVQRLVDEKIKAMKDKEYYAGGKPQGTIEQRIAMTSPAHVTGINRPHDFDFSKVRSYSALRTLEESMEMRTDPQYYEKKMIQLQLNFIKSVEGSFNSFDAADELIEELKKIPPDDFYELFLRISEISFEEFDSEGNTVENVEGNVYKILSYLEQYRRGDFDLSLKGF
- TP-DNA amplification (%), activity with respect to the wild-type TP: 1 % of wild-type TP
- TP-DNA replication, activity with respect to the wild-type TP: 17 % of wild-type TP
